{"source": "paper PMC2607196", "molecular_target": "CNTF-Rα/CNTF binary complex (human) (UniProt P26441)", "assay": "SEC", "data": [{"substance": "gp130 (D1-D3) (domain or fragment)", "values": [{"measurement": "stoichiometry N", "result": 1}]}, {"substance": "gp130 (D2-D3) (from UniProt P40189 23-918) (domain or fragment)", "values": [{"measurement": "stoichiometry N", "result": 1}]}]}
